Each block holds one substance with its values, some of them ahead of it.
How the values were obtained:
HLA-B*1402 (human) = experiment: Luminex beads; MAb 1/400; competitor rHLA-E
HLA-Cw*0302 (human) = HLA-Cw*0302 (human) (UniProt P10321); experiment: Luminex beads; MAb 1/400; competitor rHLA-E
HLA-B*5101 (human) = experiment: Luminex beads; MAb 1/400; competitor rHLA-E
HLA-B*3701 (human) = experiment: Luminex beads; MAb 1/400; competitor rHLA-E
HLA-B*1511 (human) = HLA-B*1511 (human) (UniProt P01889); experiment: Luminex beads; MAb 1/400; competitor rHLA-E
HLA-B*1513 (human) = experiment: Luminex beads; MAb 1/400; competitor rHLA-E
HLA-Cw*1701 (human) = experiment: Luminex beads; MAb 1/400; competitor rHLA-E
HLA-Cw*1601 (human) = HLA-Cw*1601 (human) (UniProt P10321); experiment: Luminex beads; MAb 1/400; competitor rHLA-E
HLA-Cw*0501 (human) = experiment: Luminex beads; MAb 1/400; competitor rHLA-E
HLA-B*1502 (human) = experiment: Luminex beads; MAb 1/1600; competitor IgG-free serum
HLA-B*5801 (human) = experiment: as above
HLA-B*1511 (B75) (human) [1] = target: HLA-B*1511 (B75) (human) (UniProt P01889); experiment: Luminex single-antigen beads; MEM-E/02 1/600; serum Mi114 1/100
HLA-B*5001 (B50) (human) = experiment: as above
HLA-B*5901 (B59) (human) = experiment: as above
HLA-B*3901 (B39) (human) = HLA-B*3901 (B39) (human) (UniProt P01889); experiment: Luminex single-antigen beads; MEM-E/02 1/600; serum Mi92 1/100
HLA-B*1511 (B75) (human) [2] = target: HLA-B*1511 (B75) (human) (UniProt P01889); experiment: as above
HLA-B*1513 (B77) (human) = experiment: as above
HLA-B*0801 (B8) (human) = HLA-B*0801 (B8) (human) (UniProt P01889); experiment: as above
HLA-B*5301 (B53) (human) = experiment: as above
HLA-B*6701 (B67) (human) = HLA-B*6701 (B67) (human) (UniProt P01889); experiment: as above
[3] = target: HLA-Cw*1203 (Cw12) (human) (UniProt P10321); experiment: as above
HLA-B*4403 (B44) (human) = experiment: as above
HLA-B*4501 (B45) (human) = experiment: as above
HLA-A*2402 (A24) (human) = HLA-A*2402 (A24) (human) (UniProt P04439); experiment: as above
HLA-A*2601 (A26) (human) = experiment: as above
[4] = target: HLA-Cw*0401 (Cw4) (human); experiment: as above
HLA-B*2708 (B27) (human) = HLA-B*2708 (B27) (human) (UniProt P01889); experiment: as above
HLA-B*3801 (B38) (human) = experiment: as above
HLA-A*3301 (A33) (human) = experiment: as above
HLA-B*1301 (B13) (human) = experiment: as above
HLA-B*1801 (B18) (human) = experiment: as above
HLA-B*1401 (B64) (human) = HLA-B*1401 (B64) (human) (UniProt P01889); experiment: as above
HLA-B*5401 (B54) (human) = HLA-B*5401 (B54) (human) (UniProt P01889); experiment: as above
HLA-A*2501 (A25) (human) = experiment: as above
HLA-B*4901 (B49) (human) = experiment: as above
HLA-A*2403 (A24) (human) = experiment: as above
HLA-A*3002 (A30) (human) = HLA-A*3002 (A30) (human) (UniProt P04439); experiment: as above
HLA-B*4801 (B48) (human) = HLA-B*4801 (B48) (human) (UniProt P01889); experiment: as above
HLA-A*3201 (A32) (human) = experiment: as above

MFI (HLA-B*1402 (human)): 88 MFI
MFI (HLA-Cw*0302 (human)): 130 MFI
MFI (HLA-B*5101 (human)): 128 MFI
MFI (HLA-B*3701 (human)): 39 MFI
MFI (HLA-B*1511 (human)): 111 MFI
MFI (HLA-B*1513 (human)): 228 MFI
MFI (HLA-Cw*1701 (human)): 184 MFI
MFI (HLA-Cw*1601 (human)): 87 MFI
MFI (HLA-Cw*0501 (human)): 87 MFI
MFI (HLA-B*1502 (human)): 350 MFI
MFI (HLA-B*5801 (human)): 485 MFI
Substance: murine monoclonal antibody (MAb) MEM-E/02

MFI (HLA-B*1511 (B75) (human) [1]): < 500 MFI
MFI (HLA-B*5001 (B50) (human)): < 500 MFI
MFI (HLA-B*5901 (B59) (human)): 930 MFI
% inhibition (HLA-B*3901 (B39) (human)): 60%
MFI (HLA-B*3901 (B39) (human)): 737 MFI
MFI (HLA-B*1511 (B75) (human) [2]): 946 MFI
MFI (HLA-B*1513 (B77) (human)): < 500 MFI
MFI (HLA-B*0801 (B8) (human)): 990 MFI
MFI (HLA-B*5301 (B53) (human)): 797 MFI
MFI (HLA-B*6701 (B67) (human)): < 500 MFI
% inhibition [3]: 65%
MFI [3]: 788 MFI
MFI (HLA-B*4403 (B44) (human)): 600 MFI
MFI (HLA-B*4501 (B45) (human)): < 500 MFI
MFI (HLA-A*2402 (A24) (human)): < 500 MFI
MFI (HLA-A*2601 (A26) (human)): < 500 MFI
% inhibition [4]: 60%
MFI [4]: 826 MFI
MFI (HLA-B*2708 (B27) (human)): < 500 MFI
MFI (HLA-B*3801 (B38) (human)): < 500 MFI
MFI (HLA-A*3301 (A33) (human)): 522 MFI
MFI (HLA-B*1301 (B13) (human)): 978 MFI
MFI (HLA-B*1801 (B18) (human)): < 500 MFI
% inhibition (HLA-B*1401 (B64) (human)): 7%
MFI (HLA-B*1401 (B64) (human)): 701 MFI
MFI (HLA-B*5401 (B54) (human)): < 500 MFI
MFI (HLA-A*2501 (A25) (human)): 722 MFI
MFI (HLA-B*4901 (B49) (human)): 890 MFI
MFI (HLA-A*2403 (A24) (human)): < 500 MFI
MFI (HLA-A*3002 (A30) (human)): < 500 MFI
MFI (HLA-B*4801 (B48) (human)): < 500 MFI
MFI (HLA-A*3201 (A32) (human)): < 500 MFI
Substance: murine monoclonal antibody MAb MEM-E/02

From patent publication US20120171195A1
